Substrate in this data set: COc1ccc(C(C)CN)cc1
Kind of data set: purified protein. The data set is classed as biochemical, Homo sapiens. To be noted: FAD substrate binding site (modelled: aromatic cage facing FAD, Tyr398/Tyr435; methoxyl oxygen near Cys172).

In publication PMC4859490, “Why p-OMe- and p-Cl-β-Methylphenethylamines Display Distinct Activities upon MAO-B Binding” (PLoS ONE, 2016) one finds Km and kcat data, which are given here for 1 protein.

B1: MAO-B (Homo sapiens) (protein)
chain: SNKCDVVVVGGGISGMAAAKLLHDSGLNVVVLEARDRVGGRTYTLRNQKVKYVDLGGSYVGPTQNRILRLAKELGLETYKVNEVERLIHHVKGKSYPFRGPFPPVWNPITYLDHNNFWRTMDDMGREIPSDAPWKAPLAEEWDNMTMKELLDKLCWTESAKQLATLFVNLCVTAETHEVSALWFLWYVKQCGGTTRIISTTNGGQERKFVGGSGQVSERIMDLLGDRVKLERPVIYIDQTRENVLVETLNHEMYEAKYVISAIPPTLGMKIHFNPPLPMMRNQMITRVPLGSVIKCIVYYKEPFWRKKDYCGTMIIDGEEAPVAYTLDDTKPEGNYAAIMGFILAHKARKLARLTKEERLKKLCELYAKVLGSLEALEPVHYEEKNWCEEQYSGGCYTTYFPPGILTQYGRVLRQPVDRIYFAGTETATHWSGYMEGAVEAGERAAREILHAMGKIPEDEIWQSEPESVDVPAQPITTTFLERHLPSVPGLLRLIGLTTIFSATALGFLAHKRGLLVRV
For the protein B1, the Km (usually the substrate concentration at which the rate is half of its maximum) came out at 87 ± 8 µM and the kcat (usually the maximal rate divided by the concentration of active sites) was 0.233 ± 0.0167 s⁻¹.
